Consider twelve proteins from patent US20030200558A1 (MONSANTO, published 2003).

B1: β-conglycinin β subunit mutant 39335-3 (other)
chain: MDYKDDDDKLKVREDENIPFYLRSSNSFQTLFENQNGRIRLIQRFNKRSPQLENLRDYIIVQFQSKPNTILLPIHADADFLLFVLSGRAILTLVNNDDRDSYNLHPGDAQRIPAGTTYYLVNPHDHQNLKIIKLAIIVNKPGRYDDFFLSSTQAQQSYLQGFSHNILETSFHSEFEEINRVLLGEEEEQRQQEGIIVELSKEQIRQLSRRAKSSSRKTISSEDEPFNLRSRNIIYSNNFGKFFEITPEKTPQLRDLDIFLSSVDINEGALLLPHFNSKAIVILVIIEGDANIELVGIKEQQQKQKQEEEPLEVQRYRAELSEDDVFVIPAAYPFVVNATSNLNFLAFGINAENNQRNFLAGEKDNVVRQIERQVQELAFPGSAQDVERLLKKQRESYFVDAQPQQKEEGSKGRKGPFPSILGALY
B2: β-conglycinin β subunit mutant 39335-6 (other)
chain: MDYKDDDDKLKVREDENIPFYLRSSNSFQTLFENQNGRIRLIQRFNKRSPQLENLRDYIIVQFQSKPNTILLPIHADADFLLFVLSGRAILTLVNNDDRDSYNLHPGIAQRIPAGTTYYLVNIHDHQNLKIIKLAIIVNKPGRYDDFFLSSTQAQQSYLQGFSHNILETSFHSEFEEINRVLLGEEEEQRQQEGIIVELSKEQIRQLSRRAKSSSRKTISSEDEPFNLRSRNIIYSNNFGKFFEITPEKIIQLRDLDIFLSSVDINEGALLLPHFNSKAIVILVIIEGDANIELVGIKEQQQKQKQEEEPLEVQRYRAELSEDDVFVIPAAYPFVVNATSNLNFLAFGINAENNQRNFLAGEKDNVVRQIERQVQELAFPGSAQDVERLLKKQRESYFVDAQPQQKEEGSKGRKGPFPSILGALY
B3: β-conglycinin β subunit mutant 39335-66 (other)
chain: MDYKDDDDKLKVREDENNPFYLRSSNSFQTLFENQNGRIRLIQRFNKRSPQLENLRDYRIVQFQSKPNTIILPHHADADFIIIILSGRAILTLVNNDDRDSYNIHPGDAQRIPAGTTYYIINPHDHQNLKIIKIAIPVNKPGRYDDFFLSSTQAQQSYLQGFSHNILETSFHSEFEEINRVLLGEEEEQRQQEGVIVELSKEQIRQLSRRAKSSSRKTISSEDEPFNLRSRNPIYSNNFGKIFEITPEKTPQLRDLDIFLSSVDINEGALLLPHFNSKAIVILVINEGDANIELVGIKEQQQKQKQEEEPLEVQRYRAELSEDDVFVIPAAYPFVVNATSNLNFLAFGINAENNQRNFLAGEKDNVVRQIERQVQELAFPGSAQDVERLLKKQRESYIVDAQPQQKEEGSKGRKGPFPSILGALY
B4: β-conglycinin β subunit mutant 39335-71 (other)
chain: MDYKDDDDKLKVREDENNPFYLRSSNSFQTLFENQNGRIRLIQRFNKRSPQIENLRDYRIVQFQSKPNTIILPHHADADFIIIILSGRAILTLVNNDDRDSYNIHPGDAQRIPAGTTYYIINPHDHQNLKIIKIAIPVNKPGRYDDFFLSSTQAQQSYLQGFSHNILETSFHSEFEEINRVLLGEEEEQRQQEGVIVELSKEQIRQLSRRAKSSSRKTISSEDEPFNLRSRNPIYSNNFGKFFEITPEKTPQIRDLDIFLSSVDINEGALLLPHFNSKAIVILVINEGDANIELVGIKEQQQKQKQEEEPLEVQRYRAELSEDDIIVIPAAYPFVVNATSNLNIIAIGINAENNQRNFLAGEKDNVVRQIERQVQELAFPGSAQDVERLLKKQRESYFVDAQPQQKEEGSKGRKGPFPSILGALY
B5: β-conglycinin β subunit mutant 39335-74 (other)
chain: MDYKDDDDKLKVREDENNPFYLRSSNSFQTLFENQNGRIRLIQRFNKRSPQLENLRDYRIVQFQSKPNTIILPHHADADFIIIILSGRAILTLVNNDDRDSYNIHPGDAQRIPAGTTYYIINPHDHQNLKIIKIAIPVNKPGRYDDFFLSSTQAQQSYLQGFSHNILETSFHSEFEEINRVLLGEEEEQRQQEGVIVELSKEQIRQLSRRAKSSSRKTISSEDEPFNLRSRNPIYSNNFGKFFEITPEKTPQLRDLDIFLSSVDINEGALLLPHFNSKAIVILVINEGDANIELVGIKEQQQKQKQEEEPLEVQRYRAELSEDDVFVIPAAYPFVVNATSNLNFLAFGINAENNQRNFLAGEKDNVVRQIERQVQELAFPGSAQDVERLLKKQRESYIVDAQPQQKEEGSKGRKGPFPSILGALY
B6: β-conglycinin β subunit mutant 39335-70 (other)
chain: MDYKDDDDKLKVREDENNPFYLRSSNSFQTLFENQNGRIRLIQRFNKRSPQIENLRDYRIVQFQSKPNTIILPHHADADFIIIILSGRAIITIVNNDDRDSYNIHPGDAQRIPAGTTYYIINPHDHQNLKIIKIAIPVNKPGRYDDFFLSSTQAQQSYLQGFSHNILETSFHSEFEEINRVLLGEEEEQRQQEGVIVELSKEQIRQLSRRAKSSSRKTISSEDEPFNLRSRNPIYSNNFGKFFEITPEKTPQIRDLDIFLSSVDINEGALLLPHFNSKAIVILVINEGDANIELVGIKEQQQKQKQEEEPLEVQRYRAELSEDDIIVIPAAYPFVVNATSNLNIIAIGINAENNQRNFLAGEKDNVVRQIERQVQELAFPGSAQDVERLLKKQRESYFVDAQPQQKEEGSKGRKGPFPSILGALY
B7: β-conglycinin β subunit mutant 39335-1 (other)
chain: MDYKDDDDKLKVREDENNPFYLRSSNSFQTLFENQNGRIRLIQRFNKRSPQLENLRDYRIVQFQSKPNTIILPHHADADFLLFVLSGRAILTLVNNDDRDSYILHPGDAQRIPAGTTYYLVNPHDHQNLKIIILAIPVNKPGRYDDFFLSSTQAQQSYLQGFSHNILETSFHSEFEEINRVLLGEEEEQRQQEGIIVELSKEQIRQLSRRAKSSSRKTISSEDEPFNLRSRNPIYSNNFGKIFEITPEKIIQLRDLDIFLSSVDINEGALLLPHFNSKAIVIIIINEGDANIEIVGIKEQQQKQKQEEEILEVQRYRAELSEDDVFVIPAAYPIVVNATSNINFLAFGINAENIQRNFLAGEKDNVVRQIERQVQELAFPGSAQDVERLLKKQRESYIVDAQPQQKEEGSKGRKGPFPSILGALY
B8: β-conglycinin β subunit mutant 39335-2 (other)
chain: MDYKDDDDKLKVREDENNPFYLRSSNSFQTLFENQNGRIRLIQRFNKRSPQLENLRDYIIVQFQSKPNTIILPHHADADFILFVLSGRAILTLVNNDDRDSYILHPGDAQRIPAGTTYYLVNPHDHQNLKIIILAIPVNKPGRYDDFFLSSTQAQQSYLQGFSHNILETSFHSEFEEINRVLLGEEEEQRQQEGIIVELSKEQIRQLSRRAKSSSRKTISSEDEPFNLRSRNPIYSNNFGKFFEITPEKIIQLRDLDIFLSSVDINEGALLLPHFNSKAIVILVINEGDANIELVGIKEQQQKQKQEEEPLEVQRYRAELSEDDVFVIPAAYPIVVNATSNINFLAFGINAENIQRNFLAGEKDNVVRQIERQVQELAFPGSAQDVERLLKKQRESYIVDAQPQQKEEGSKGRKGPFPSILGALY
B9: β-conglycinin β subunit mutant 39328-27 (other)
chain: MDYKDDDDKLKVREDENNPFWLRSSNSFQTLFENQNGRIRLLQRFNKRSPQLENLRDWRIVQFQSKPNTILLPWHADADFLLFVLSGRAILTLVNNDDRDSWNLHPGDAQRIPAGTTWWLVNPHDHQNLKIIKLAIPVNKPGRYDDFFLSSTQAQQSYLQGFSHNILETSFHSEFEEINRVLLGEEEEQRQQEGVIVELSKEQIRQLSRRAKSSSRKTISSEDEPFNLRSRNPIYSNNFGKFFEITPEKTPQLRDLDIFLSSVDINEGALLLPHFNSKAIVILVINEGDANIELVGIKEQQQKQKQEEEPLEVQRYRAELSEDDVFVIPAAYPFVVNATSNLNFLAFGINAENNQRNFLAGEKDNVVRQIERQVQELAFPGSAQDVERLLKKQRESYFVDAQPQQKEEGSKGRKGPFPSILGALY
B10: β-conglycinin β subunit mutant 39328-63 (other)
chain: MDYKDDDDKLKVREDENNPFWLRSSNSFQTLFENQNGRIRLLQRFNKRSPQLENLRDWRIVQFQSKPNTILLPHHADADFLLFVLSGRAILTLVNNDDRDSWNLHPGDAQRIPAGTTYYLVNWHDHQNLKIIKLAIPVNKPGRWDDFFLSSTQAQQSWLQGFSHNILETSFHSEFEEINRVLLGEEEEQRQQEGVIVELSKEQIRQLSRRAKSSSRKTISSEDEPFNLRSRNPIYSNNFGKFFEITPEKTWQLRDLDIFLSSVDINEGALLLPHFNSKAIVILVINEGDANIELVGIKEQQQKQKQEEEPLEVQRWRAELSEDDVFVIPAAYPFVVNATSNLNFLAFGINAENNQRNFLAGEKDNVVRQIERQVQELAFPGSAQDVERLLKKQRESWFVDAQPQQKEEGSKGRKGPFPSILGALY
B11: β-conglycinin β subunit mutant 39328-59 (other)
chain: MDYKDDDDKLKVREDENNPFWLRSSNSFQTLFENQNGRIRLLQRFNKRSPQLENLRDWRIVQFQSKPNTILLPHHADADFLLFVLSGRAILTLVNNDDRDSWNLHPGDAQRIPAGTTYWLVNWHDHQNLKIIKLAIPVNKPGRWDDFFLSSTQAQQSWLQGFSHNILETSFHSEFEEINRVLLGEEEEQRQQEGVIVELSKEQIRQLSRRAKSSSRKTISSEDEPFNLRSRNPIYSNNFGKFFEITPEKTPQLRDLDIFLSSVDINEGALLLPHFNSKAIVILVINEGDANIELVGIKEQQQKQKQEEEPLEVQRWRAELSEDDVFVIPAAYPFVVNATSNLNFLAFGINAENNQRNFLAGEKDNVVRQIERQVQELAFPGSAQDVERLLKKQRESWFVDAQPQQKEEGSKGRKGPFPSILGALY
B12: β-conglycinin β subunit mutant 39328-36 (other)
chain: MDYKDDDDKLKVREDENNPFYLRSSNSFQTLFENQNGRIRLLQRFNKRSPQLENLRDWRIVQFQSKPNTILLPHHADADFLLFVLSGRAILTLVNNDDRDSWNLHPGDAQRIPAGTTYYLVNWHDHQNLKIIKLAIPVNKPGRWDDFFLSSTQAQQSWLQGFSHNILETSFHSEFEEINRVLLGEEEEQRQQEGVIVELSKEQIRQLSRRAKSSSRKTISSEDEWFNLRSRNPIWSNNFGKFFEITPEKTWQLRDLDIFLSSVDINEGALLLPHFNSKAIVILVINEGDANIELVGIKEQQQKQKQEEEPLEVQRWRAELSEDDVFVIPAAYPFVVNATSNLNFLAFGINAENNQRNFLAGEKDNVVRQIERQVQELAFPGSAQDVERLLKKQRESYFVDAQPQQKEEGSKGRKGPFPSILGALY

One series deals with the molecule itself. The series is described as follows: sucrose gradient sedimentation, anti-FLAG western (self-assembly).
With B1, the binding result is “no binding”.
Regarding B2, the binding result is “no binding”.
B3: the binding result was “no binding”.
Same read-out and setting: the same measure for B4: “no binding”; for B5: “no binding”; for B6: “no binding”.
On the same count and under the same terms, next, B7: “no binding”; B8: “no binding”.

Another series deals with the molecule itself. The series is described as above. The source holds these as a separate data set. As for the experimental part: To determine if the recombinant forms of β subunit expressed in E. coli from pMON39328 and pMON39329 could self-assemble to form trimers, aliquots of the soluble protein fraction from E. coli lysates are layered onto 12 ml of a 5-25% sucrose density gradient and centrifuged at 36,000 rpm for 17.5 hours at 20° C. (Sorvall TH-641 rotor; Sorvall Ultra Pro 80 ultracentrifuge). Following centrifugation, the gradient is divided into fractions using a Labconco Autodensi-Flow instrument (Labconco, Kansas City, Mo.), and each fraction is analyzed by western blot analysis using Anti-FLAG M2 antibody (Stratagene Corporation, LaJolla, Calif.) to determine which fractions contained β-conglycinin β subunit. 7S and […] soy protein fractions, as well as ovalbumin (45 kD) and aldolase (158 kD), are run as size markers on separate gradients.
This example sets forth confirmation of the protein structure from the expression of modified β-conglycinin β subunit clones. The assembly properties of the following modified forms of the β subunit (indicated by mutant ID number), each containing a different tryptophan substitution, are determined as described in Example 6. Western blot analysis of sucrose gradient fractions is carried out as in Example 6 using anti-FLAG antibody.
Consider B9, for which the binding result is “no binding”.
The same measure, in the same setting: next, B10: “no binding”; B11: “no binding”; B12: “no binding”.
